Assay results from patent publication US20060073148A1.

How the values were obtained:
[1] = target: native human IL-13 (crude preparation from activated human cord blood Th2 cells) (human) (UniProt P35225); assay: cell-based or functional assay
[2] = target: cynomolgus monkey IL-13 (NHP IL-13), recombinant (cynomolgus monkey); assay: cell-based or functional assay
Chain of cynomolgus monkey IL-13 (NHP IL-13), recombinant (cynomolgus monkey) (Q5I6E4 other isoform, or with tags, fused parts or gaps): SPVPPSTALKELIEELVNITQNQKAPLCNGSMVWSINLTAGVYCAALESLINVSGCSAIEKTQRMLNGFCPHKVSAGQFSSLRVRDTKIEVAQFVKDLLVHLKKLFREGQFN

Chain of native human IL-13 (crude preparation from activated human cord blood Th2 cells) (human) (P35225 other isoform, or with tags, fused parts or gaps, form in doubt): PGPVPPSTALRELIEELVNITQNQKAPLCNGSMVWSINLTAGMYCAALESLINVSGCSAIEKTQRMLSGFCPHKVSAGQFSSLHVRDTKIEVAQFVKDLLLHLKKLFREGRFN

IC50, STAT6 phosphorylation assay [1]: 0.554 nM
IC50, CD23 expression assay [2]: 0.308 nM
B1: antibody with the murine heavy chain of MJ2-7 and a humanized light chain (antibody, part only; not given: humanized light chain, V domains shown, part only)
VH: EVQLQQSGAELVKPGASVKLSCTGSGFNIKDTYIHWVKQRPEQGLEWIGRIDPANDNIKYDPKFQGKATITADTSSNTAYLQLNSLTSEDTAVYYCARSEENWYDFFDYWGQGTTLTVSS
